Measurements from ChEMBL document CHEMBL1129993, “Synthesis and biological characterization of 1,4,5,6-tetrahydropyrimidine and 2-amino-3,4,5,6-tetrahydropyridine derivatives as selective m1 agonists” (J Med Chem, 1997).

What was measured:
[1] = substrate: COC(=O)C1CN=CNC1; settings: Mus musculus; A9L
[2] = substrate: C[N+](C)(C)CCOC(N)=O; settings: Mus musculus; A9L

B1: Muscarinic acetylcholine receptor M2 (Mus musculus), Q9ERZ4 (protein)
chain: MNNSTNSSNNGLAITSPYKTFEVVFIVLVAGSLSLVTIIGNILVMVSIKVNRHLQTVNNYFLFSLACADLIIGVFSMNLYTLYTVIGYWPLGPVVCDLWLALDYVVSNASVMNLLIISFDRYFCVTKPLTYPVKRTTKMAGMMIAAAWVLSFILWAPAILFWQFIVGVRTVEDGECYIQFFSNAAVTFGTAIAAFYLPVIIMTVLYWHISRASKSRIKKEKKEPVANQDPVSPSLVQGRIVKPNNNNMPGGDGGLEHNKIQNGKAPRDGGTENCVQGEEKESSNDSTSVSAVASNMRDDEITQDENTVSTSLGHSKDDNSRQTCIKIVTKTQKGDACTPTSTTVELVGSSGQNGDEKQNIVARKIVKMTKQPAKKKPPPSREKKVTRTILAILLAFIITWAPYNVMVLINTFCAPCIPNTVWTIGYWLCYINSTINPACYALCNATFKKTFKHLLMCHYKNIGATR
- Km [1]: 0.014 µM
- Km [2]: 0.046 µM
